According to patent US8981179B2, “Transgenic non-human animal and uses thereof” (Sanofi, priority 2009, dated 2015):

Biological target: T1, prokineticin 2 receptor (PROK2R) (Mus musculus, UniProt Q8K458)
T1 construct: endogenous in cells; host or cells: primary cortical neurons, E18, CreLuc mouse lines (187 and others)
Experiment: Primary cortical neurons CreLuc luciferase assay, Gq modulation
Assay type: cell-based
Text: A general schematic of the workflow for the isolation and compound treatment of primary neuronal cells from the CreLuc model is depicted in FIG. 9. Cortices or other brain subregions are removed from embryos, usually embryonic (E) day 17 or 18, but also as early as E14. The individual neurons are then isolated and plated onto 96 well assay plates. Assays are run either in triplicate or quadruplicate. The assays are run from day 3 in culture up until day 7 or day 10 in culture depending on the expression levels of the target GPCR. Compounds are added to the plates then at a set timepoint, Bright Glo (Promega, Cat #E2610) is added to the plates and the assay is then run on a TopCount or other luminometer.
Primary cell cultures from the CreLuc mice may be used to screen compounds that are capable of modulating Gs coupled receptors. The PROK2R is Gq coupled, therefore, prokineticin 2 (PROK2) which is an agonist for the PROK2R was used to see whether CreLuc mice would be responsive to Gq modulation. […]
The effects of PROK2 peptide on luciferase expression in primary cortical neurons from different CreLuc lines was examined. […] Lines were selected based on earlier experiments which determined inducible luciferase levels in whole brain extracts (data not shown). […] BrightGlo was used for the assay and read on a TopCount. […]

T1 sequence (Q8K458 whole entry): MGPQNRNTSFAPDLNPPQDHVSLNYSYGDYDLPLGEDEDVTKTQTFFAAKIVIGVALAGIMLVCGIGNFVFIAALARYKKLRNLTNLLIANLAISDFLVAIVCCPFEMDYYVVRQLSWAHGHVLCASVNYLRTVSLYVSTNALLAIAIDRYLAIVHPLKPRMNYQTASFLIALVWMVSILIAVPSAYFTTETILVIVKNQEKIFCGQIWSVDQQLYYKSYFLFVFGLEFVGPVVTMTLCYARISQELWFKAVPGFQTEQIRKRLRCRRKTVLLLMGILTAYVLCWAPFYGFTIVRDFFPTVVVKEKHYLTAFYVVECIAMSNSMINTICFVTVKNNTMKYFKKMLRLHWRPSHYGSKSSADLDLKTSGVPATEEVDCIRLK

luciferase levels vs media only control (cortical neurons line 187, day 3, 1 nM and 100 nM, 4 hours and 8 hours): Highly significant increases
luciferase levels in cortical neurons from different CreLuc lines (lines 219 and 175, 1 nM and 100 nM, 4 hours and 24 hours): Statistically significant increases
B1: PROK2: prokineticin 2 peptide (Peprotech), agonist for the PROK2R (protein)
chain: AVITGACDKDSQCGGGMCCAVSIWVKSIRICTPMGKLGDSCHPLTRKVPFFGRRMHHTCPCLPGLACLRTSFNRFICLAQK
